{"source": "paper PMC6921966", "about": "(Frontiers in Immunology, 2019)", "binders": {"B1": {"name": "FcγRIV-VHH-7m (VHH)", "VHH": "QVQLQESGGGLVQAGGSLRLSCAASGFTVDDYSIGWFRQAPGKEREGVSCISIRDGSTGYTDPVKGRFTISSDNAKNMVYLQMNMLKPEDTAVYYCAGDIYCSNDDVGVGPYDYWGQGTQVTVSS", "notes": "also called FcgRIV-VHH-7m; FcγRIV-specific VHH"}, "B2": {"name": "M2e-VHH-23m (VHH)", "VHH": "QVQLQESGGGLVQTGGSLRLSCAFSGFTSDDYVIGWFRQAPGKGRQGVSCIRLSGGGTIYADSAKGRFTVSADNAKKTVYLQMTRLKPEDTAVYYCGAERYNVEGCGYDVAYWGKGTQVTVSS", "notes": "also called M2e-VHH-m23; M1e- VHH-23m; not shown: His6, C-terminal, kept"}, "B3": {"name": "M2e-VHH-66m (VHH)", "VHH": "B2 VHH with T28I, V70I, R85S, Y101H", "notes": "not shown: His6, C-terminal, kept"}, "B4": {"name": "M2e-VHH-10m (VHH)", "VHH": "QVQLQESGGGLVQAGESLSLSCAASGLAFDDYVIGWYRQAPGKGREGLSCMRLSNGAIMYGPSVKGRFTMSSDNAKSTFFLQMTRLIPEDTAVYYCGAEKHDVNGCGFDVAYWGQGTQVTVSS", "notes": "as for B3"}}, "key": {"[1]": {"molecular_target": "T1, mouse FcγRIV on transfected HEK293T cells (Mus musculus, UniProt A0A0B4J1G0)", "T1 construct": "also called FcγRIV transfected cells", "T1 sequence (A0A0B4J1G0 21-249)": "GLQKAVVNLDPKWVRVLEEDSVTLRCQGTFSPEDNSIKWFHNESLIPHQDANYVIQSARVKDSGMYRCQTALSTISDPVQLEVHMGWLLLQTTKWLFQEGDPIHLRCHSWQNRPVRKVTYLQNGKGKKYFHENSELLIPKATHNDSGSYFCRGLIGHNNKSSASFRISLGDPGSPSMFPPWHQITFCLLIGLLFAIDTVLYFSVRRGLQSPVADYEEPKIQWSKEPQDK", "assay": "flow cytometry on cells", "settings": "one partner purified"}, "[2]": {"molecular_target": "M2 of A/Puerto Rico/8/1934 (H1N1) on infected cells (Influenza A virus A/Puerto Rico/8/1934 …, UniProt P06821)", "sequence (P06821 whole entry)": "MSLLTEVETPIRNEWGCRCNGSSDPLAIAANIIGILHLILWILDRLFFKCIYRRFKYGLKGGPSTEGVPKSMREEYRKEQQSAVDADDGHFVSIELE", "assay": "flow cytometry on cells", "settings": "one partner purified"}, "[3]": {"molecular_target": "M2 of A/Udorn/307/1972 (H3N2) on infected cells (influenza A virus A/Udorn/307/1972 …, UniProt P0DOF5)", "sequence (P0DOF5 whole entry)": "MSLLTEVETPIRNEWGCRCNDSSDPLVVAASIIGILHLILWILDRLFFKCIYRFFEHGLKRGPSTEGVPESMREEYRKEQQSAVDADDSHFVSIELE", "assay": "flow cytometry on cells", "settings": "one partner purified"}, "[4]": {"molecular_target": "M2 of A/Swine/Ontario/42729A/2001 (H3N3) on infected cells (Influenza A virus …, UniProt Q64HP7, strain)", "assay": "flow cytometry on cells", "settings": "one partner purified"}, "human H3N2 M2e peptide [5]": {"molecular_target": "T2, human H3N2 M2e peptide (Influenza A virus, human H3N2 consensus)", "T2 chain": "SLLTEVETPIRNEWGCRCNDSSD", "assay": "ITC; […] (300 μM) […] (30 μM) in PBS; […]", "settings": "both partners purified"}, "human H3N2 M2e peptide [6]": {"molecular_target": "T2, human H3N2 M2e peptide", "assay": "ELISA", "settings": "both partners purified"}}, "note": "Where a chain is given by its changes, count along the chain named."}
{"binder": "B1", "values": [{"measurement": "binding result", "setting": "[1]", "result": "binds"}]}
{"binder": "B2", "values": [{"measurement": "Kd", "setting": "[2]", "result": 13.6, "unit": "nM"}, {"measurement": "binding result", "setting": "[3]", "result": "binds"}, {"measurement": "binding result", "setting": "[4]", "result": "no binding (tested: 20 μg/ml)"}, {"measurement": "Kd", "setting": "human H3N2 M2e peptide [5]", "result": 730, "unit": "nM"}, {"measurement": "stoichiometry N", "setting": "human H3N2 M2e peptide [5]", "result": 1}]}
{"binder": "B3", "values": [{"measurement": "binding result", "setting": "human H3N2 M2e peptide [6]", "result": "binds"}]}
{"binder": "B4", "values": [{"measurement": "binding result", "setting": "human H3N2 M2e peptide [6]", "result": "binds"}]}
